Experimental data published in US20240218374, “Nucleic Acid Compounds That Bind Coronavirus Proteins” (Somalogic Operating Co., Inc., published 2024).

Target: Spike RBD (SARS-CoV-2, UniProt P0DTC2 SEQ:1-223)
Assay: filter

B1: 26874-29_4 (SL1111) (ssDNA)
DNA: CCTTGGGATACTATGCGTCCGACCGCTCGGACGGAGAAGG
modifications: Y=Tyr-dU, p=Nap-dC; printed …pYAYGpGYppGAppGpYpGGApGGAGAAGG [Tyr-dU: 9,12,14,18,27; Nap-dC: 11,16,19,20,23,24,26,28,32]
For B1, the Kd was 300 pM.
